Assay results reported in patent US20080182978A1, “ANTI-NGF ANTIBODIES AND METHODS USING SAME” (RINAT NEUROSCIENCE CORP, priority 2002, published 2008).

Assay: Dose response of E3 on body weight in arthritic rats (Example 9)
Format: in vivo, rat
Description: The ability of E3 to produce reduction in pain in arthritic rats was further investigated by examining the dose response relationship between E3 administration and pain reduction. Rats were treated with adjuvant to induce arthritis as described above. Ten rats not injected with adjuvant were used as non-arthritic controls. Fourteen days after adjuvant injection, animals were qualified into the study based on the criteria stated above, randomized into eight groups of ten rats and tested for the intensity of their vocalization response. They were then dosed on day 14 with saline, or 0.003 mg/kg, 0.01 mg/kg, 0.03 mg/kg, 0.1 mg/kg, 0.3 mg/kg, 1 mg/kg or 5 mg/kg of E3 antibody as described above. Animals were tested for their vocalization response on days 16, 18, 20, and 24. Animals were redosed with saline or the same dose of E3 on day 18 after the vocalization testing. Animals were also weighed each day, starting at day 14. Thus, animals were dosed twice with a given dose of antibody or saline on days 14 and 18, and assessed for pain five times, on days 14, 16, 18, 20 and 24. Data are shown in Tables 20-22 and in FIGS. 20-22.
The effect of treating animals with various doses of anti-NGF antibody E3 on body weight was statistically analyzed by using two-way ANOVA to compare the results obtained pairwise between arthritic animals treated with vehicle with those treated with a given dose of antibody E3. […] At all higher dose of E3, the difference between treated and untreated arthritic animals was significant (p= or <0.0001). […]

[1] = E3 0.1 mg/kg on days 14+18, day 17
[2] = E3 0.1 mg/kg on days 14+18, day 18
[3] = E3 0.1 mg/kg on days 14+18, day 20
[4] = E3 0.1 mg/kg on days 14+18, day 21
[5] = E3 0.1 mg/kg on days 14+18, day 23
[6] = E3 0.1 mg/kg on days 14+18, day 24
[7] = E3 0.3 mg/kg on days 14+18, day 14
[8] = E3 0.3 mg/kg on days 14+18, day 15
[9] = E3 0.3 mg/kg on days 14+18, day 16
[10] = E3 0.3 mg/kg on days 14+18, day 17
[11] = E3 0.3 mg/kg on days 14+18, day 18
[12] = E3 0.3 mg/kg on days 14+18, day 20
[13] = E3 0.3 mg/kg on days 14+18, day 21
[14] = E3 0.3 mg/kg on days 14+18, day 23
[15] = E3 0.3 mg/kg on days 14+18, day 24
[16] = E3 1.0 mg/kg on days 14+18, day 14
[17] = E3 1.0 mg/kg on days 14+18, day 15
[18] = E3 1.0 mg/kg on days 14+18, day 16
[19] = E3 1.0 mg/kg on days 14+18, day 17
[20] = E3 1.0 mg/kg on days 14+18, day 18
[21] = E3 1.0 mg/kg on days 14+18, day 20
[22] = E3 1.0 mg/kg on days 14+18, day 21
[23] = E3 1.0 mg/kg on days 14+18, day 23
[24] = E3 1.0 mg/kg on days 14+18, day 24
[25] = E3 5.0 mg/kg on days 14+18, day 14
[26] = E3 5.0 mg/kg on days 14+18, day 15
[27] = E3 5.0 mg/kg on days 14+18, day 16
[28] = E3 5.0 mg/kg on days 14+18, day 17
[29] = E3 5.0 mg/kg on days 14+18, day 18
[30] = E3 5.0 mg/kg on days 14+18, day 20
[31] = E3 5.0 mg/kg on days 14+18, day 21
[32] = E3 5.0 mg/kg on days 14+18, day 23
[33] = E3 5.0 mg/kg on days 14+18, day 24

B1: E3: humanized, affinity matured anti-NGF antagonist antibody; variable regions SEQ ID NO:1 and 2; human IgG2a (A330P331 to S330S331), kappa (antibody, V domains shown)
VH: QVQLQESGPGLVKPSETLSLTCTVSGFSLIGYDLNWIRQPPGKGLEWIGIIWGDGTTDYNSAVKSRVTISKDTSKNQFSLKLSSVTAADTAVYYCARGGYWYATSYYFDYWGQGTLVTVS
VL: DIQMTQSPSSLSASVGDRVTITCRASQSISNNLNWYQQKPGKAPKLLIYYTSRFHSGVPSRFSGSGSGTDFTFTISSLQPEDIATYYCQQEHTLPYTFGQGTKLEIKRT
modifications: human IgG2a constant (A330S/P331S) and kappa constant missing
E3 0.1 mg/kg on days 14+18, day 16
  Body weight normalized to day 14: 101.07
[1]
  Body weight normalized to day 0: 115.99
  Body weight normalized to day 14: 101.89
[2]
  Body weight normalized to day 0: 118.01
  Body weight normalized to day 14: 103.69
[3]
  Body weight normalized to day 0: 122.17
  Body weight normalized to day 14: 107.36
[4]
  Body weight normalized to day 0: 123.49
  Body weight normalized to day 14: 108.50
[5]
  Body weight normalized to day 0: 124.35
  Body weight normalized to day 14: 109.25
[6]
  Body weight normalized to day 0: 123.77
  Body weight normalized to day 14: 108.77
E3 0.3 mg/kg on days 14+18, day 0
  Body weight normalized to day 0: 100.00
E3 0.3 mg/kg on days 14+18, day 1
  Body weight normalized to day 0: 99.26
E3 0.3 mg/kg on days 14+18, day 2
  Body weight normalized to day 0: 102.98
E3 0.3 mg/kg on days 14+18, day 3
  Body weight normalized to day 0: 106.95
E3 0.3 mg/kg on days 14+18, day 4
  Body weight normalized to day 0: 110.50
E3 0.3 mg/kg on days 14+18, day 7
  Body weight normalized to day 0: 120.03
E3 0.3 mg/kg on days 14+18, day 8
  Body weight normalized to day 0: 121.38
E3 0.3 mg/kg on days 14+18, day 9
  Body weight normalized to day 0: 121.57
E3 0.3 mg/kg on days 14+18, day 10
  Body weight normalized to day 0: 118.27
E3 0.3 mg/kg on days 14+18, day 11
  Body weight normalized to day 0: 116.02
[7]
  Body weight normalized to day 0: 108.43
  Body weight normalized to day 14: 100.00
[8]
  Body weight normalized to day 0: 109.59
  Body weight normalized to day 14: 101.05
[9]
  Body weight normalized to day 0: 111.54
  Body weight normalized to day 14: 102.88
[10]
  Body weight normalized to day 0: 113.57
  Body weight normalized to day 14: 104.76
[11]
  Body weight normalized to day 0: 116.13
  Body weight normalized to day 14: 107.11
[12]
  Body weight normalized to day 0: 120.62
  Body weight normalized to day 14: 111.26
[13]
  Body weight normalized to day 0: 122.88
  Body weight normalized to day 14: 113.31
[14]
  Body weight normalized to day 0: 125.36
  Body weight normalized to day 14: 115.59
[15]
  Body weight normalized to day 0: 125.33
  Body weight normalized to day 14: 115.58
E3 1.0 mg/kg on days 14+18, day 0
  Body weight normalized to day 0: 100.00
E3 1.0 mg/kg on days 14+18, day 1
  Body weight normalized to day 0: 98.81
E3 1.0 mg/kg on days 14+18, day 2
  Body weight normalized to day 0: 103.18
E3 1.0 mg/kg on days 14+18, day 3
  Body weight normalized to day 0: 106.52
E3 1.0 mg/kg on days 14+18, day 4
  Body weight normalized to day 0: 110.52
E3 1.0 mg/kg on days 14+18, day 7
  Body weight normalized to day 0: 121.54
E3 1.0 mg/kg on days 14+18, day 8
  Body weight normalized to day 0: 124.28
E3 1.0 mg/kg on days 14+18, day 9
  Body weight normalized to day 0: 125.60
E3 1.0 mg/kg on days 14+18, day 10
  Body weight normalized to day 0: 124.11
E3 1.0 mg/kg on days 14+18, day 11
  Body weight normalized to day 0: 121.27
[16]
  Body weight normalized to day 0: 111.72
  Body weight normalized to day 14: 100.00
[17]
  Body weight normalized to day 0: 112.30
  Body weight normalized to day 14: 100.53
[18]
  Body weight normalized to day 0: 115.00
  Body weight normalized to day 14: 102.95
[19]
  Body weight normalized to day 0: 118.08
  Body weight normalized to day 14: 105.74
[20]
  Body weight normalized to day 0: 121.16
  Body weight normalized to day 14: 108.46
[21]
  Body weight normalized to day 0: 126.90
  Body weight normalized to day 14: 113.57
[22]
  Body weight normalized to day 0: 130.41
  Body weight normalized to day 14: 116.71
[23]
  Body weight normalized to day 0: 137.81
  Body weight normalized to day 14: 123.35
[24]
  Body weight normalized to day 0: 138.93
  Body weight normalized to day 14: 124.41
E3 5.0 mg/kg on days 14+18, day 0
  Body weight normalized to day 0: 100.00
E3 5.0 mg/kg on days 14+18, day 1
  Body weight normalized to day 0: 98.25
E3 5.0 mg/kg on days 14+18, day 2
  Body weight normalized to day 0: 101.82
E3 5.0 mg/kg on days 14+18, day 3
  Body weight normalized to day 0: 105.47
E3 5.0 mg/kg on days 14+18, day 4
  Body weight normalized to day 0: 109.29
E3 5.0 mg/kg on days 14+18, day 7
  Body weight normalized to day 0: 119.77
E3 5.0 mg/kg on days 14+18, day 8
  Body weight normalized to day 0: 121.96
E3 5.0 mg/kg on days 14+18, day 9
  Body weight normalized to day 0: 123.04
E3 5.0 mg/kg on days 14+18, day 10
  Body weight normalized to day 0: 120.00
E3 5.0 mg/kg on days 14+18, day 11
  Body weight normalized to day 0: 117.97
[25]
  Body weight normalized to day 0: 111.58
  Body weight normalized to day 14: 100.00
[26]
  Body weight normalized to day 0: 113.33
  Body weight normalized to day 14: 101.61
[27]
  Body weight normalized to day 0: 116.06
  Body weight normalized to day 14: 104.09
[28]
  Body weight normalized to day 0: 119.14
  Body weight normalized to day 14: 106.85
[29]
  Body weight normalized to day 0: 122.14
  Body weight normalized to day 14: 109.53
[30]
  Body weight normalized to day 0: 128.60
  Body weight normalized to day 14: 115.32
[31]
  Body weight normalized to day 0: 132.82
  Body weight normalized to day 14: 119.11
[32]
  Body weight normalized to day 0: 140.79
  Body weight normalized to day 14: 126.36
[33]
  Body weight normalized to day 0: 141.77
  Body weight normalized to day 14: 127.25
Data normalized to day 0, 0.03 mg/kg (p<0.002)
  change in body weight vs vehicle-treated arthritic animals (two-way ANOVA): significant change in body weight
Data normalized to day 14, 0.03 mg/kg (p<0.005)
  change in body weight vs vehicle-treated arthritic animals (two-way ANOVA): significant change in body weight
rat, in vivo
  weight loss compared with saline treated arthritic rats: less apparent weight loss than saline treated arthritic rats
